Measurements published in patent US7119174B2, “Diagnosis and treatment of AUR1 and/or AUR2 related disorders” (Sugen, Inc., priority 1995, dated 2006).

Columns and labels:
AUR2 = AUR2 protein expression by immunoblot after antisense oligo treatment of H1299 cells; format: cell-based; conditions: human tumor cell line H1299, lipofectin, each oligo 1 μM then 200 nM, harvested ~40 hours after initial treatment
Description: Human H1299 cells were seeded at ˜40–50% confluency in a 6 well plate (Falcon). The following day lipofectin (Gibco) and oligo(s) were mixed with OptiMEM (Gibco) such that the final concentration of lipofectin is 100 μg/mL and the final concentration of each oligo is 1 μM in a volume of 200 μL. The lipofectin/oligo/OptiMEM mixture was incubated at room temperature (20–25° C.) for 15 minutes, 800 μL of OptiMEM was added to the lipofectin/oligo/OptiMEM mixture, and mixed gently. The growth medium was removed from the H1299 cells, which were at ˜80% confluency. Cells were washed once with OptiMEM. The OptiMEM was aspirated, the lipofectin/oligo/OptiMEM mixture was added, cultures incubated at 37° C. for 4 hours. The lipofectin/oligo/OptiMEM mixture was removed and replaced with normal growth medium containing the antisense oligo(s) at a concentration of 200 nM. The plates were returned to the 37° C. incubator for 16–20 hours after which the growth medium was removed from the cells and they were washed once with OptiMEM. The OptiMEM was again aspirated and the lipofectin/oligo/OptiMEM mixture was added (prepared as described above) and the plates again were incubated at 37° C. for 4 hours. The lipofectin/oligo/OptiMEM mixture was removed again and replaced with normal growth medium containing the antisense oligo(s) at a concentration of 200 nM. The platea were returned to the 37° C. incubator for 16–20 hours. The cells were harvested (˜40 hours after initial treatment) and analyzed for aur2 mRNA by northern blot or AUR2 protein expression by immunoblot.

[1] = target: myelin basic protein (Sigma)

| Molecule | AUR2 protein expression (AUR2) | in vitro kinase assay on protein from stable Rat1 lines (alpha-casein) | in vitro kinase assay on protein from stable NIH3T3 lines [1] | further results |
| --- | --- | --- | --- | --- |
| CAGGGCAGAGTGGTCACTTTC (listed as DNA, chemistry not given here) [SEQ ID NO:30, antisense oligonucleotide to nucleotides 1743–1763 of aur2] | significantly down regulated |  |  |  |
| SEQ ID NO:16: printed in b341 as antisense oligonucleotide targeting human aur2 mRNA; probably misprint for one of SEQ ID NO:30-32 (antisense GARTTYGGNGARGTNTTYYTNGC; listed as DNA, chemistry not fully specified) | significantly down regulate |  |  |  |
| SEQ ID NO:17: printed in b341 as antisense oligonucleotide targeting human aur2 mRNA; probably misprint for one of SEQ ID NO:30-32 (antisense AGNACNCCRAANGCCCACACRTC; listed as DNA, chemistry not fully specified) | significantly down regulate |  |  |  |
| CGTCCGCCACTCCGACCAGCC (listed as DNA, chemistry not given here) [SEQ ID NO:31, antisense oligonucleotide to nucleotides 42–62 of aur2] | significantly down regulated |  |  |  |
| TGCAGTCGAACCTTGCCTCCA (listed as DNA, chemistry not given here) [SEQ ID NO:32, antisense oligonucleotide to nucleotides 1654–1674 of aur2] | significantly down regulated |  |  |  |
| HA-tagged activated human AUR2 mutant T288D (protein) MDRSKENCISGPVKATAPVGGPKRVLVTQQFPCQNPLPVNSGQAQRVLCPSNSSQRVPLQAQKLVSSHKPVQNQKQKQLQATSVPHPVSRPLNNTQKSKQPLPSAPENNPEEELASKQKNEESKKRQWALEDFEIGRPLGKGKFGNVYLAREKQSKFILALKVLFKAQLEKAGVEHQLRREVEIQSHLRHPNILRLYGYFHDATRVYLILEYAPLGTVYRELQKLSKFDEQRTATYITELANALSYCHSKRVIHRDIKPENLLLGSAGELKIADFGWSVHAPSSRRTDLCGTLDYLPPEMIEGRMHDEKVDLWSLGVLCYEFLVGKPPFEANTYQETYKRISRVEFTFPDFVTEGARDLISRLLKHNPSQRPMLREVLEHPWITANSSKPSNCQNKESASKQSYPYDVPDYAS |  | the wild-type and activated AUR2 (T288D) proteins had increased activity on this artificial substrate | the activated AUR2 mutant (T288D) had marked activity on this artificial substrate |  |
| HA-tagged kinase inactive human AUR2 mutant K162M (protein) MDRSKENCISGPVKATAPVGGPKRVLVTQQFPCQNPLPVNSGQAQRVLCPSNSSQRVPLQAQKLVSSHKPVQNQKQKQLQATSVPHPVSRPLNNTQKSKQPLPSAPENNPEEELASKQKNEESKKRQWALEDFEIGRPLGKGKFGNVYLAREKQSKFILALMVLFKAQLEKAGVEHQLRREVEIQSHLRHPNILRLYGYFHDATRVYLILEYAPLGTVYRELQKLSKFDEQRTATYITELANALSYCHSKRVIHRDIKPENLLLGSAGELKIADFGWSVHAPSSRRTTLCGTLDYLPPEMIEGRMHDEKVDLWSLGVLCYEFLVGKPPFEANTYQETYKRISRVEFTFPDFVTEGARDLISRLLKHNPSQRPMLREVLEHPWITANSSKPSNCQNKESASKQSYPYDVPDYAS |  | The kinase inactive AUR2 mutant (K162M) was unable to phosphorylate-casein over the levels observed in the vector control cell line in vitro | The wild-type and kinase inactive AUR2 mutant (K162M) were unable to phosphorylate myelin basic protein in vitro |  |
| HA-tagged wild-type human AUR2 (entire coding domain with C-terminal HA epitope) (protein) MDRSKENCISGPVKATAPVGGPKRVLVTQQFPCQNPLPVNSGQAQRVLCPSNSSQRVPLQAQKLVSSHKPVQNQKQKQLQATSVPHPVSRPLNNTQKSKQPLPSAPENNPEEELASKQKNEESKKRQWALEDFEIGRPLGKGKFGNVYLAREKQSKFILALKVLFKAQLEKAGVEHQLRREVEIQSHLRHPNILRLYGYFHDATRVYLILEYAPLGTVYRELQKLSKFDEQRTATYITELANALSYCHSKRVIHRDIKPENLLLGSAGELKIADFGWSVHAPSSRRTTLCGTLDYLPPEMIEGRMHDEKVDLWSLGVLCYEFLVGKPPFEANTYQETYKRISRVEFTFPDFVTEGARDLISRLLKHNPSQRPMLREVLEHPWITANSSKPSNCQNKESASKQSYPYDVPDYAS |  | the wild-type and activated AUR2 (T288D) proteins had increased activity on this artificial substrate | The wild-type and kinase inactive AUR2 mutant (K162M) were unable to phosphorylate myelin basic protein in vitro |  |
| human AUR2 (AURORA TWO), endogenous protein in lysates of human tumors and tumor cell lines (protein) MDRSKENCISGPVKATAPVGGPKRVLVTQQFPCQNPLPVNSGQAQRVLCPSNSSQRVPLQAQKLVSSHKPVQNQKQKQLQATSVPHPVSRPLNNTQKSKQPLPSAPENNPEEELASKQKNEESKKRQWALEDFEIGRPLGKGKFGNVYLAREKQSKFILALKVLFKAQLEKAGVEHQLRREVEIQSHLRHPNILRLYGYFHDATRVYLILEYAPLGTVYRELQKLSKFDEQRTATYITELANALSYCHSKRVIHRDIKPENLLLGSAGELKIADFGWSVHAPSSRRTTLCGTLDYLPPEMIEGRMHDEKVDLWSLGVLCYEFLVGKPPFEANTYQETYKRISRVEFTFPDFVTEGARDLISRLLKHNPSQRPMLREVLEHPWITANSSKPSNCQNKESASKQS |  |  |  | in vitro kinase assay, phosphorylation of myelin basic protein [1]: AUR1 and AUR2 immunocomplexes were able to phosphorylate myelin basic protein |
| human AUR1 (AURORA ONE), endogenous protein in SW480 cell lysate (protein) MAQKENSYPWPYGRQTAPSGLSTLPQRVLRKEPVTPSALVLMSRSNVQPTAAPGQKVMENSSGTPDILTRHFTIDDFEIGRPLGKGKFGNVYLAREKKSHFIVALKVLFKSQIEKEGVEHQLRREIEIQAHLHHPNILRLYNYFYDRRRIYLILEYAPRGELYKELQKSCTFDEQRTATIMEELADALMYCHGKKVIHRDIKPENLLLGLKGELKIADFGWSVHAPSLRRKTMCGTLDYLPPEMIEGRMHNEKVDLWCIGVLCYELLVGNPPFESASHNETYRRIVKVDLKFPASVPTGAQDLISKLLRHNPSERLPLAQVSAHPWVRANSRRVLPPSALQSVA |  |  |  | in vitro kinase assay, phosphorylation of myelin basic protein [1]: AUR1 and AUR2 immunocomplexes were able to phosphorylate myelin basic protein |
